Data from patent US20260070976A1 (Alector, published 2026).

Experiments:
[1] = target: recombinant human PILRA (human, UniProt Q9UKJ1 20-197); assay: SPR, Biacore T200, antibody captured by anti-Fab
[2] = target: recombinant human PILRB (human, UniProt Q9UKJ0 20-191); assay: SPR, Biacore T200, antibody captured by anti-Fab
[3] = target: T1, human PILRA G78 on HEK293F cells (human, UniProt Q9UKJ1 20-303); assay: FACS on HEK293F cells, binding on human PILRA (hA) over human PILRB (hB)
T1 construct: also called hA; G78 OE
T1 sequence (Q9UKJ1 20-303 R78G): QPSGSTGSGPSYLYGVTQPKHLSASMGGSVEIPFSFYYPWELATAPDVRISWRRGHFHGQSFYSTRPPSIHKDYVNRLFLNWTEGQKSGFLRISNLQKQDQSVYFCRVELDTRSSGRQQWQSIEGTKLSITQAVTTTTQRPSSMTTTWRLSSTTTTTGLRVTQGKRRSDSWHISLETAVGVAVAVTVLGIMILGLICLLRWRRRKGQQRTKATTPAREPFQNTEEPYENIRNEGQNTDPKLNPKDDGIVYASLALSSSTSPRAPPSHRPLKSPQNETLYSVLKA

[4] = target: T2, human PILRB on HEK293F cells (human, UniProt Q9UKJ0 20-227); assay: hB Kd of Table 9; method not stated (Example 8: HEK293F overexpressing cells, FACS)
T2 construct: also called hB
T2 sequence (Q9UKJ0 20-227): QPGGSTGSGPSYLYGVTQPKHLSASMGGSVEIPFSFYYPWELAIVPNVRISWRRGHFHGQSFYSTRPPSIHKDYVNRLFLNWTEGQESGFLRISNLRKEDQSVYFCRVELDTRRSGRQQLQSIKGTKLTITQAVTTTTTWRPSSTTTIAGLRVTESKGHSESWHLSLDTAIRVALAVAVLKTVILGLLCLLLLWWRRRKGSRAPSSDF

[5] = target: cynomolgus PILRA on HEK293F cells (cynomolgus monkey, UniProt A0A7N9CRU1 20-292); assay: flow cytometry; HEK293F cells overexpressing cynomolgus PILRA, goat anti-human IgG Alexa Fluor 647
Chain of cynomolgus PILRA on HEK293F cells (A0A7N9CRU1 entry or part of it): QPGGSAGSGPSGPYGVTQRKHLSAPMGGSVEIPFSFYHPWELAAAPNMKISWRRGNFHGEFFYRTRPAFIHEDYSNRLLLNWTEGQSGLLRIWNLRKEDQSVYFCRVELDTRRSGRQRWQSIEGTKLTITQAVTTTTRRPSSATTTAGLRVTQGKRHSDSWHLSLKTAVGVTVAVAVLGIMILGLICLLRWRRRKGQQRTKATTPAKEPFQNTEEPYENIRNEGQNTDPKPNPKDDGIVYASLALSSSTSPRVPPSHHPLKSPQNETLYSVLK

Chain of recombinant human PILRB (Q9UKJ0 20-191 limits assumed): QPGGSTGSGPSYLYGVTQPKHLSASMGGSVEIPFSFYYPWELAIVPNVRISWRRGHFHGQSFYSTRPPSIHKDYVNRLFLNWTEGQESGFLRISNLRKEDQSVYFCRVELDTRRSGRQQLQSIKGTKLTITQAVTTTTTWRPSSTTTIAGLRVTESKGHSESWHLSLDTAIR
Chain of recombinant human PILRA (Q9UKJ1 20-197 limits assumed): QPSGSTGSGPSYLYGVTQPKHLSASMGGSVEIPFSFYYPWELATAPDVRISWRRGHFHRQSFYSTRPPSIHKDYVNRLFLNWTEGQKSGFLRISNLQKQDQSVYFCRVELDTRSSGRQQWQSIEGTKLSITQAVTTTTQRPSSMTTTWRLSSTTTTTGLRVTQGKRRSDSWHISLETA

Kd [1]: 0.2 nM | Kd [2]: 9.1 nM | hA/hB binding ratio on HEK293F [3]: 20.3 | Kd [4]: 51.5 nM | EC50 (read off the curve) [5]: ~0.5 µg/mL
B1: X13 (antibody, human IgG4, V domains shown)
VH: QVQLVQSGAEVKKPGSSVKVSCKASGYNFLHYDVNWVRQAPGQGLEWMGGIIPIFGTANYAQKFQGRVTITADESTSTAYMELSSLRSEDTAVYYCATAVGAGWFDPWGQGTLVTVSS
VL: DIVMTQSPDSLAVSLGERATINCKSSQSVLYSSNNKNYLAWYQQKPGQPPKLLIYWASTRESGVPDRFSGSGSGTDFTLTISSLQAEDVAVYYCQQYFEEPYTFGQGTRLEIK
notes: conditioned media in the HEK293F assays
